Reference: patent publication US20030092624A1 (YISSUM RESEARCH DEVELOPMENT COMPANY OF THE HEBREW …, published 2003)

B1: native SP1 protein purified from aspen plants (116 kDa oligomer / 12.4 kDa monomer) (other)
chain: MATRTPKLVKHTLLTRFKDEITREQIDNYINDYTNLLDLIPSMKSFNWGTDLGMESAELNRGYTHAFESTFESKSGLQEYLDSAALAAFAEGFLPTLSQRLVIDYFLY
notes: Homo-oligomer; On Western blots the protein was separated by SDS-PAGE first; also called purified SP1; plant SP1 protein

Tests used:
[1] = target: T1, Citrate Synthase (CS), Roche Diagnostics (UniProt P00889 28-464); test: cell-based or functional assay
T1 sequence (looked up): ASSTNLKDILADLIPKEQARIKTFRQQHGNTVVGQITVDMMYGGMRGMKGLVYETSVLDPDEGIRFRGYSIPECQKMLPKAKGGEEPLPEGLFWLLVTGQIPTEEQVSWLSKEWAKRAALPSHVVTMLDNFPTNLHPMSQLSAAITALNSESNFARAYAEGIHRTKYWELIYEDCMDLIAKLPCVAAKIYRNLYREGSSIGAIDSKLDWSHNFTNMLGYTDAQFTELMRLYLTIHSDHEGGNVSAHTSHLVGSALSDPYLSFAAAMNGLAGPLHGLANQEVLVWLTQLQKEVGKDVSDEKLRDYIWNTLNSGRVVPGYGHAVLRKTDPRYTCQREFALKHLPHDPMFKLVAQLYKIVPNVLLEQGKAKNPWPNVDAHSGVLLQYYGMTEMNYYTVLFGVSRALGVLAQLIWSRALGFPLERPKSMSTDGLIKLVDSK

[2] = target: Horseradish Peroxidase (HRP), Sigma (horseradish) (UniProt P00433); test: cell-based or functional assay
[3] = target: alpha-amylase (Sigma, A 6380); test: cell-based or functional assay
[4] = target: superoxide dismutase (SOD), cosmetic grade ('dismutin', Pentapharm Ltd.); test: cell-based or functional assay
[5] = target: T2, Horseradish Peroxidase (HRP), Sigma (horseradish, UniProt P00433 31-338); test: cell-based or functional assay
T2 sequence (looked up): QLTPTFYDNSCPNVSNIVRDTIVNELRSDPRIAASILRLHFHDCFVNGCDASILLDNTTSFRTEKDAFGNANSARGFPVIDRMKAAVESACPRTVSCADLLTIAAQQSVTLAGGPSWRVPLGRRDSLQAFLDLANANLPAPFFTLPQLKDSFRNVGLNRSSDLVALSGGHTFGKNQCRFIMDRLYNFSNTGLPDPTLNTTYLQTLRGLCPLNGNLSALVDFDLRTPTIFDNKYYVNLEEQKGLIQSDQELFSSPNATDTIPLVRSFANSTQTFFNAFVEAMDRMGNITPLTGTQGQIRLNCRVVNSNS

[6] = target: the molecule itself; test: SDS-tricine PAGE; self-association of SP1 monomers

Molecule | remaining CS enzymatic activity at 43° C. after 40 minutes, CS:CBD-SP1 monomeric molar ratio of 1:20 [1] [%] | remaining CS enzymatic activity at 43° C. after 40 minutes, CS:CBD-SP1 ratio of 1:5 [1] [%] | HRP activity rescued after room temperature inactivation [2] [%] | alpha-amylase activity after 2 hours in 2 M CaCl2 [3] [%] | increase in alpha-amylase activity 2 hours after SP1 addition [3] [%] | remaining alpha-amylase activity after one-week incubation at room temperature [3] [%] | SOD activity compared to SP1 untreated SOD [4] [%] | protection of CS activity against heat inactivation at 43° C., CS:SP1 ratio of 1:5, 40 minutes [1] [%] | remaining CS enzymatic activity at 43° C., CS:SP1 ratio of 1:50, 15 minutes [1] [%] | remaining CS enzymatic activity at 43° C., CS:SP1 ratio of 1:50, 40 minutes [1] [%] | protection of HRP activity at 55° C. compared with BSA at 1:300 [5] [fold] | protection of HRP activity at 55° C., HRP:SP1 molar ratio of 1:300, 60 minutes [5] [%] | remaining HRP activity at 55° C., HRP:SP1 molar ratio of 1:300, 2 hours [5] [%] | binding result [6]
recombinant CBD-SP1 fusion protein (32.4 kDa monomer) expressed in E. coli from pET-CBD-180-SP1 | 73 | 33 | – | – | – | – | – | – | – | – | – | – | – | –
B1 | – | – | 10 | 50 | 60 | > 40 | 60 | 22 | ~100 | ≥ 93 | ~3 | > 60 | 53 | binds
